Drawing on a protein production outcome set (Wang et al. 2014), this text covers protein production for 20 sequences.

The data set in a line: label from the status in PepcDB records.

As for “MANNSPNAAVSVQSPTHQQALACLRELVGHPEAQFHDGQYEAIEALVDAGRRALVVQRTGWGKSAVYFVASLLLRRRGSGPTLIVSPLLALMRDQVAAAARAGVRAVAINSANALEWDTVLAQLAADEVDVLLVSPERLTNPSFRENQLPELIRRTGLLVIDEAHCISDWGHDFRPDYRRIADLIAQLPESVPVLATTATANSRVVHDIEEQLGAGVLTIRGALGRESLRLGVLTLPDSRDRLGWLLTHLADMPGSGIIYTLTVSAAEDTARLLAEAGHNVLSYTGRTDPADRERAEQLLKDNQVKALVATSALGMGFDKPDLGFVIHLGAPSSPVAYYQQVGRAGRGAANADVLLLPGSEDREIWQYFATASMPSAEKAAAVLGVLGEAGSALSTVALEARVDLRRTPLELLLKVLAVDGAVERVGGGWRSTGQPWNYDAERYARIAEARVDEQDSMVIYQDTAGCRMEYITSVLDDETAASCGRCDNCAGRWFPVDVAASAADAAGQTLRRAGIAVEPRLQWPSGMDRLGVAAKGKIKPDESVSEGRILARLTDLGWGGALRELFAAGAPDHAVDPAMLQACVQVLREWSGAEGGTPWSGVGRPAAVVSIPSRSKPQLVESLAQGIAGIGRMPYLGQLQPQYGGPTGARGGNSAYRLAGVWDRLVVGPELAQALAGTGGQPVLLVDDLIDSRWTMTVSARALRQAGVSAVLPLALAQAG”, the protein production entry is recorded as “failed”.

Turning to “MANSLRTLFSVSTHGVFLNKRSSYRVRKVFVGMPLRICSEIPRFVSVSCIRSDMCGIMMLGKDVHDLLETSSGGNVEKGFLRWRNGGGMYHRSALIDSSALVEFGAVVHQEAILGAEVHIGSNTVIGSSVKIGPSTKIGNCSIGDLCVIHNGVCIGQDGFGFYVDDNGNMVKKPQTLNVKIGNRVEIGANTCIDRGSWRDTVIGDDTKIDNLVQIGHNVIIGKCCLFCGQVGIAGSAEIGDFVALGGRVAVRDHVSIVSKVRLAANSCVTKNITEPGDYGGFPAQEETITYSVCQTQED”, the protein production entry is recorded as “failed”.

On to “MANSTESGSLQSSSTVKVRSHYRPNNGTGSPGGRPRPKRGFLPLGKGLVWGGLVTLTATVAAIAGVGIGFFTPGPKGLVQQVIPGQSAGVEAGQADLFPYHISRPVNILVMGIDRVEPTEEEPNVDEFGGRSDTMLLVRFDPRENGLKLLSIPRDTRVFIPDVGYTKINDANAYGGPQLAARVINRNLGEVPIDRYVRVTTDALQELVDLVGGVEVFVPRPMFYEDKTQQLLIDLPAGLQTLNGQQAEQFVRFRYDANGDIGRVQRQETLLKALQNRLSHPSMITRIPKAIGIMQKTVDTNLTMEEILALVNFGRQLDRQEVQMVMLPGRFSQPAEFDGRSYWVMSDVGKRQVLRNYFDVIEEVPTWAETPGRSPESLRIALQNATDDPQALERVKEYLQSKDFRNFYETSESPQLLAETKILVQRGDLDGAHYLRQTLGGGVVEASSVGDLGSDLTIQVGMDLDQWLKESTPVDDSTPQF”, for which the protein production entry is on record as “failed”.

As to “MANYPKELPAQTQSRQPGIESEMNPSPVYEYEDYKGADKLKGKVALITGGDSGIGRAVSVAYAKEGADIAIVYKDEHEDAEETKKRVEQEGVKCLLIAGDVGEEEFCNEAVEKTVKELGGLDILVNNAGEQHPKESIKDITSEQLHRTFKTNFYSQFYLTKKAIDYLKPGSAIINTTSINPYVGNPTLIDYTATKGAINAFTRTMAQALVKDGIRVNAVAPGPIWTPLIPATFPEETVAQFGQDTPMGRPGQPVEHVGCYVLLASDESSYMTGQTLHVNGGNFVT”, the protein production entry is reported as “not failed”.

As to “MANYYEPPASGNRRDAVKGYNSGSFDDSAGDQSQTNDYQLKIKKSKSVPNADRAASRSWSFSDPESRRKRRVAGYKVYSVEQKMKGSIRKSFKWFKDIIGIS”, the protein production entry was “failed”.

Take “MAPCAGGTCRTASERRHLQCRSRPSQGRQGGSKSAGRGFIAAEFPCLDGGEPISTARAFRDRNREFSPAMRAILDIVLIILDLYIWLLIASAILSWLIAFNVVNTRNQFVGAVSEFLYRITEPLLAPIRNLLPSLGGLDISPIILILLIMFLQRVITYYIYPAVF”: the protein production entry is on record as “failed”.

“MAPETLAPDTTGLEVRLRLTDDWFTACDLGALLPGRGVAALLPDGGQVALFRDRDGGLYAIDNRDPFTGAAVLSRGLTGTHQGRPFVASPLLKQRFDLTTGECLDDAAMRVETYRVQAVRAVPAVNAVNPALEHHHHHH”: the protein production result is “failed”.

“MAPLGGAPRLVLLFSGKRKSGKDFVTEALQSRLGADVCAVLRLSGPLKEQYAQEHGLNFQRLLDTSTYKEAFRKDMIRWGEEKRQADPGFFCRKIVEGISQPIWLVSDTRRVSDIQWFREAYGAVTQTVRVVALEQSRQQRGWVFTPGVDDAESECGLDNFGDFDWVIENHGVEQRLEEQLENLIEFIRSRL”: the protein production entry is given as “failed”.

With “MAPNASCLCVHVRSEEWDLMTFDANPYDSVKKIKEHVRSKTKVPVQDQVLLLGSKILKPRRSLSSYGTDKEKTIHLTLKVVKPSDEELPLFLVESGDEAKRHLLQVRRSSSVAQVKAMIETKTGIIPETQIVTCNGKRLEDGKMMADYGIRKGNLLFLASYCIGG”, the protein production result is “failed”.

Turning to “MAPQASTRENACRSEMLSASSRGSGWPCQENPDLSIPPLRPIALSRRNGWWSGAAAVKLASGHCTGRWKMSFWYVVDAVAVGIILPWIIATYRLLEAFKRGTGAGLTKWAIYAAVCVPAMLLVMWGIQNLR”, the protein production entry is recorded as “failed”.

As for “MAPRTNRPRTNRPRTGRPPAPDAPAAPDAPTAPDARRRRLPMRFLLPSLLLLAVMAMLMLRGFVHSEILADHRIRPPAATDQVPEKILDGGPVIDTRGGRTTSLSLPDHRLVLTFDDGPDPQWTPKVLDVLKKHHAHAVFFVTGTMTSRHPDLVRRLVAEGHEVGVHTFNHPDLAYQSKKRIDWELSQNQLALAGAAGIRTSLFRPPYSSFADAMDNESWPVTEYIGTRGYITVVNNTDSEDWQKPGVDEIIRRATPRGGKGAVVLMHDSGGDRHQTVQALDRFLPELQRRGYEFENLSEALGAPSAHTPVTGVDRWKGNAWIFLVQAADRITGMLVVGLAVIGGLVLTRFGLMLLLSGTHARRVRRPDFRWGPAPVTEPVSVLVPAYNEAKCIENTVRSLTASEHPVEVIVVDDGSSDGTARLVESLRLPDVRVVRQHNAGKPAALNRGLANARHDLIVMMDGDTVFEPATVRELVQPFADPRVGAVAGNAKVGNRDSLIGAWQHIEYVMGFNLDRRMYDLLRCMPTIPGAVGAFRRSALERVGGMSDDTLAEDTDITMALHRDGWRVVYAEKARAWTEAPESVQQLWSQRYRWSYGTMQAIWKHRRALVERGPSGRFGRVGLPLVALFMVVAPLLAPLIDVFLLYGVIFGPTQKTVLAWLGVLAVQAVCAAYAFRLDRERMTHLVSLPLQQILYRQLMYVVLLQSWITALVGGRLRWQKLRRTGVVEAPGSIPQQRTAGSESERRPVG”, the protein production result is on record as “failed”.

With “MAPVIRRAKEIDLYCLNSLMYKLHDEHHQQCPDLFKTASEIEEEKSIARYLDDPECMVYVAEMDDVIIGFITGHFCELISTVSKLVMMATIDELYIEKEYRREGVAEQLMMRIEQELKDYGVKEIFVEVWDFNKGALEFYNKQGLNEHIHYLRKPLNRLEHHHHHH”, the protein production entry is “not failed”.

For the sequence “MAQAQTQGQEEEQKKKILIVVTHGPEDLDRTYAPLFMASISASMEYETSVFFMIKGPKLLDKKWQEEERKKGGNPFIHFFDMAKENGVKMYVCVQSLKDMCHMKEDDVVEGIELVGGSTLIDLTLEADRTLFF”, the protein production entry is “not failed”.

On to “MAQEDVTAVATNGAGPVETHLVFTEFKQMLLVEAQKVGDAVTFYKSAFGAIESGHSLYPKRKLDQELPHVLSSELNLAGSSFVVCDVSSLPGFSTAKSEGSGVTFLLGTKDAEAAVAKAVDAGAVKVEVTEAEVELGFKGKVTDPFGVTWIFAEKKTVITDENKEV”, for which the protein production result is on record as “not failed”.

For “MAQEVSPESYKDLVLFLATAGIVAPIFKRLKINPILGYLLAGVILGPFGLGRFIPYAPWLDYFTVDNPDEIAQLAEFGVVFLLFMIGLELSWERLRLMRRWVFGLGAVQVIGCSLALGAGGMLLGLEPVVALTIGAALTLSSTAIAVPVLAERRRLHSEAGRATFSVLLFQDLAVAPILITLAILGRGNGSFQLQDLLALAPAALGLAVIVLVGRLALRPMLKSVAKAKSEEMFMAACLLVIIGAGMVAALSGLSMALGAFVAGVLLAETEYRHEVEVKIEPFKGLLLSLFFVSLGIRLDLSLLAAQPAAILGTALGLLVLKTAVVFGSGLLMGLNRRAAIEAALILAAGGEFAFVLLDNAMSAQVVPPAIGQAVLVSATLTMFLIPGLAALGGYLGRKNAPLPVSEAPPSTANEPDRLGPEPAGQVLVIGYGRVGRLVGDMLGRHDLPWIAVEREARLVEQGRRDGARIYYGDASRLELLERCGLATARAVVVTMDAFEVAEAVVVAARGARPDVPIVVRARDARHAARLYELGATDAVPETIEASLQLSEAVLVDIGVPMGLVIASIHERRDEYRKKLNRPDALGGRRRRLRDATLR”, the protein production result was “failed”.

With “MAQIPFDLKHADFARLAEVGLRLPGLREVKTLTQTSWIEAPTTIIGTVVSGAELQVGAFCSLSGGTLNNVHIGRYSSIAAGTIIGVHEHPTSWLTTSRTSYWPQVYGWDELIAPDRAAEIRAGKRPFTRSCPITEIGHDVWIGQGCFIKSGVRIGHGSVIGARATVTKDVPPYSIVLGTPGRVVRTRVPEPLIERLLAVEWWRYSIYDLFAAPFDDVARALDVIEDRIAEGAIKPYEAPLVTPADLAEPLGLAARLAARFPRPLARAS”, the protein production result is reported as “failed”.

Consider “MAQIVTSTKSCTVNPLRMSQPLGAALAFMGLRNCMPLLHGSQGCTSFGLVLFVRHFRESIPLQTTAMSEVATVLGGFENVEQAIVNIVGRTKPDVIGICTTGVTEIKGDDLDGYIKMVRANHPELANVALVPVSTPDFKGAFEDGFAATVTRIVETLVETPAEGAAPDADRINVLAGSHLTPGDIDELRDIIEAFGLVPTFLPDISGSLDGHVPDDFTPTTHGGVSVAEVVAMGGAGHTLAFGEHMRKAAAALEAKAGVPFTLLSRVTGLAAADELMATLAKISGRPVPPKYRRQRSQLVDAMLDGHFYFGGKSVAIGAEPDMLLNIGGWLADMGCTVSAAVTTTTSPSLAQVPSDEVLIGDLEDLERRAEDCDLLVTHSHGRQAAERLSVPLFRMGLPMFDRLGAVHQVAVGYRGTRDLIFAIGNLFIANIKEPDVNSWRSASACPDQTDAPAKAH”, for which the protein production result is listed as “failed”.

As for “MAQNNENALPDITKSITLEAPIQKVWETVSTSEGIAKWFMPNDFQLKEGQEFHLQSPFGPSPCKVLAVQAPTELSFEWDTEGWVVTFQLEDLGEKTGFTLIHSGWKEPNEVIGKANEKSSVVRGKMDGGWTGIVNERLRKAVEELEHHHHHH”, the protein production result is recorded as “not failed”.

Consider “MAQTEKLTDYVNPFVGTDGYGNVYPGAQIPFGGIQISPDTDSRFYDAASGYKYNHLTLMGFSLTHLSGTGIPDLGDFLFIPGTGEMKLEPGTHEDPDQGYRSRYSHDKEWASPNYYAVELADYGVKAEMTSGVRSGMFRFTYPESDNAFIMIDMNHTLWQSCEWSNLRMINDSTITGYKLVKGWGPERHVYFTLEHHHHHH”, for which the protein production entry was “failed”.

On to “MARCAVFLEELWFALFAWVPTVLGTAVRLVAWRPLFRLLGGVCGKVRFGQSLTLQGAGHMRLADGVRLGKGCHLYARTGELVMGENAALNINVVVDADGGTVRIGAHATVGPGTVIRAANHRFDRLDTPIMFQGHEYGEVVIDDDVWIAANCTVVPGVHIGRGAVVGAGAVVTKDVEPYTVVAGVPARFIRRRGPAE”, for which the protein production result is recorded as “failed”.
